Experiment: yeast display, Sf9 membrane polyspecificity reagent, FACS + sequencing; frameworks hold sequencing errors
How it was run: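 Synthetic nanobody libraries on Saccharomyces cerevisiae BJ5465 were galactose-induced for 36–48 hours, stained 1 hour at 4 °C with 10% biotinylated, detergent-solubilized Sf9 membrane reagent and enriched on streptavidin microbeads. FACS then separated cells into low and high (top ~1%) gates by anti-HA (expression) and streptavidin (reagent binding) fluorescence. Genes were colony-PCR amplified, MiSeq 2 × 250 sequenced and CDR-length filtered. A clone's polyreactivity label is that of its gate of origin.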

| Sequence | polyreactivity (PSR sort gate) |
| --- | --- |
| QVQLVESGGGLVQAGGSLRLSSAASGSTFLYVMGWYRQAPGKERELVAAISESGGSTYYADSVKGRFTISRDNAKNTVYLQMNSLKPEDTAVYYCAADLPTGLQYRYYRVDYWGHGTQVTVSS | low polyreactivity |
| QVQLVESGGGLVQAGGSLRLSSAASGSTFPYVKGWYRQAPGKESEFVAAISQRTGSTYYADSVKGRFTISRDNAKNTVYLQMNSLKPEDTAVYYCAKPGYLRPSRYDYWGQGTQVTVSS | high polyreactivity |
| QVQLVESGGGLVQAGGSLRLSSAASGSTFQDYDMRRSRQAPGKERELVAVISGSGGCTYYADSVKGRFTISRDNAKNTVYLQMNSLKPEDTAVYYCATDIKDGRPGDGVYDYGYWGQGTQVTVSS | low polyreactivity |
| QVQLVESGGGLVQAGGSLRLSSAASGSTFTPYVMGWYRQAPGKERELVAAISKRGGSTYYADSVKGRFTISRDNANNTVYLQMNSLKPEDTAVYYCAAVQPAWGNGYWGQGTQVTVSS | high polyreactivity |
| QVQLVESGGGLVQAGGSLRLSSAASGSTFVQNAIGWYRQAPGKERELVAAISRTGGSTYSAHSVKGRFTIYRDNAKNTVYLEMNSLKPEDTAVYYFAKRPPHYSWPTFIEFGSWGLGTQVTVSS | high polyreactivity |
| QVQLVESGGGLVQAGGSLRLSSAASGSTIRFNAMGWYRQAPGKERELVAVIRWRGGTTYYADSVKGRFTISRDNAKNTVYLQINSLKPEDSAVYYCNADYWFSYTWHGSYTVGYWGQGTQVTVSS | high polyreactivity |
| QVQLVESGGGLVQAGGSLRLSSAATGSIFLSNMGWYRQAPGKERELVAAIYRNGGSTYYADSVKGRFTISRDNAKNTVYLQMNSLKPEDTAVYYCAVQRYWGQGTQVTVSS | high polyreactivity |
| QVQLVESGGGLVQAGGSLRLSSAATGSIIGFYAMGWYRQAPGKERELVAAITRGGGSTFYADSVKGRFTISRDNAKNTVYLQINSLKPEDTAVYYCAATVYRYHGPGYYYWGQGTQVTVSS | high polyreactivity |
| QVQLVESGGGLVQAGGSLRLSSAGSGRIFGYYAMGGYRQAPGTETELVAAISSNGGSTYYADSVKGRFTISRDNANNTVYLQMNSLQPEDTAVYYCKVYFYSRHYFYRGDYWGQGTQVTVSS | high polyreactivity |
| QVQLVESGGGLVQAGGSLRLSSAPSGRIFDHYAMGWYRQAHGKERELGAAITRSGGITYYADSVKGRFTISRDNAKNTVYLQMNSLKPEDTAVYYCAALSYRYTDKFDYWGQGTQVTVSS | low polyreactivity |
| QVQLVESGGGLVQAGGSLRLSSAPSGSTYYVYDMGWYRQAPGKERELVAAITSGGSTNNADSVKGRFTISRDNAKNTVYLEMKSLKPVDTAVYYCAAQGRVWDSYGYEYVQEVTRDYWGQGTQVNVSS | low polyreactivity |
| QVQLVESGGGLVQAGGSLRLSSDASGFIIANNALGWYRQAPVKERELVAAISRSGGRTYYADSVKGRFTISRDNGKKTVYLQMNSLKTEDTAVYYCVADRTDTSNYWGQGTQVTVSS | high polyreactivity |
| QVQLVESGGGLVQAGGSLRLSWAASGFGWYAMGWYRQAPGKEREFVAAISRGGGSTYYADSVKGRFTISRDNAKNTVYLQMNSLKPEDTAVYYCAAVYYRRISQGDTQTYYQYNYWGQGTQVTVSS | high polyreactivity |
| QVQLVESGGGLVQAGGSLRLSWAASGHTFHGYDMGWYRQEPGKERDLVAAITSTGGSTHYSDSVKGRFTISRDNAKNTVYLQMNSLKPEDTAVFFCANRSYGLTRAYSAGNFWGQGTQVTVSS | low polyreactivity |
| QVQLVESGGGLVQAGGSLRLSWAASGITFYGNAMGWYRAAPGKEREFVAAISTRDGTTYADSVKGRFTISRDNAKNTVYLQRNSLKPEDTAVYYCAAAYYYDGQQGDFAYWGQGTQVTVSS | low polyreactivity |
| QVQLVESGGGLVQAGGSLRLSWAASGNTFNNNPMGWYRQAPGKERELVAAISGSGGSTYYADSVKGRFTISRDNAKNTVYLQLNSLKPEDTAGYYCAVRLVHGGKRYVYWGQGTQVTVSS | high polyreactivity |
| QVQLVESGGGLVQAGGSLRLSWAASGPTCGQLAMVWYRQAPGKERELVAAISYSGARTYYADSVKGRFTISRDNAKNTVDLQMNSLIPQDTAVKYCNAYSAYVNGNRRGLGYWGQGTHVTVSS | high polyreactivity |
| QVQLVESGGGLVQAGGSLRLSWAASGSSFFRNAMGGYSQAPGKERELVASISRSGGSTYYADSVKGRFTISRDNAKNTVYLQMNSLKPEDTAVSYCAKKPNTQTSYWYYYWGQGTQVTVST | high polyreactivity |
| QVQLVESGGGLVQAGGSLRLSWAASGSTFIGYAMGWYRQAPGKERELVAAISWSGGLTYYADSVKGRFTFSRDNAKNTVYLQMNSLKPEDTAVYYCNTVPYGISVQFNYWGQGTQVTVSS | high polyreactivity |
| QVQLVESGGGLVQAGGSLRLSWAASGSTFQSYAMGLSRQAPGKERELVAAISFSGGSTYYADSVKGRFTISRDNAKNTVYLQMHSLKPEDTAVYYCAADVAYVEYDYWGQGTQVTVSS | low polyreactivity |
| QVQLVESGGGLVQAGGSLRLSWAASGSTFRNYAMGWYRQAPGKEREFVAAISRSGGSTYYADSVKGRFTISRDNANNPVYLQMISLKPEETAVYYCNKESFWGPDNYWGQGTQETVSS | high polyreactivity |
| QVQLVESGGGLVQAGGSLRLSWAAYGRNFRPNTMGWYRQAPGKEREMVAAISRSGGSTYYADSVKARFTISRDNAKNTVYLQMNSLKPEDTAVYYCAKRYGGIVGVGAYKYEYWGQGTQVTVSS | high polyreactivity |

| Sequence | polyreactivity (PSR sort gate) |
| --- | --- |
| QVQLVESGGGLVQAGGSLRLSWATSGFILLDNALGWYRQAPGKESEFVASINISGDRTFYADSVKGRFTISRDNAKNTVYLQMNSLKAEDTAVYYCAKEPGWGRRSTTAYDYWGQGTQVTVSS | low polyreactivity |
| QVQLVESGGGLVQAGGSLRLTCAASGFIFAYYVMGWYRQAPGKERELVAAITSSDGITYYADSVKGRFTISRDNAKNTVYLQMNSLKPEDTAVYYCNADVYPDVGWRESDYWGQGTQVTVSS | low polyreactivity |
| QVQLVESGGGLVQAGGSLRLTCAASGFIFGANTRGWYRQAPGKERELVATISWSGGSTYYADSVKGRFTISRDNAKMTVYLQMNSLKPEVTAVYYCAAPGVTYGFRSVYWGQGTQVTVSS | low polyreactivity |
| QVQLVESGGGLVQAGGSLRLTCAASGFIFPLYTMGWYRQAPGKERELVAAITGSGGSTYYADSVKGRFTISRDNAKNTVYLQMNSLKPEDTAVYYCAKDYTYGMDWGQGTQVTVSS | low polyreactivity |
| QVQLVESGGGLVQAGGSLRLTCAASGFIFRYYAMGWYRPATGKEMELVAAISRGGSTNYADSVKGRFTISRDNAKYTVYLQMNSLKPEDTAVYYCASRKGRSKQGYYYWGQGTQVTVSS | high polyreactivity |
| QVQLVESGGGLVQAGGSLRLTCAASGFIFRYYAMGWYRQAPGKERELVAAISRSGGSTYYADSVKGRFTISRDNAKNTVYLQMNSLKPEDTAVYYCAAKDGRSYYDRTPMDYWGQGTQVTVSS | low polyreactivity |
| QVQLVESGGGLVQAGGSLRLTCAASGFIIKFYDMGWYRQAPGKERELVATITFSSGTTYYADSVKGRFTISRDNAKNTVYLQMNSLKPEDTAVYYCAAYTLPAWPYDGPAGPRYDYWGQGTQVTVSS | low polyreactivity |
| QVQLVESGGGLVQAGGSLRLTCAASGFILSSNAMGWYRQAPGKERELVAAITRSGGSTYYADSVKGRFTISRDNAKNTVYLEMNSLKPEDTAVYYCNRLYYSGSGASLDYWGQGTQVTVSS | high polyreactivity |
| QVQLVESGGGLVQAGGSLRLTCAASGFIYPYYAMGWYRQATGKERELVATNTRSGGSTYYADSVKGRFTISLDNAKNNVYLQMNSVKQEDSAVYSCAADIYWYRGYGFWGQGTQVTVSS | high polyreactivity |
| QVQLVESGGGLVQAGGSLRLTCAASGFTFGTYAMGWYRQAPGKERELVAAITWSGGSTYYADSVKGRFTISRDNAKNTVYLQMNSLKPEDTAVYYCAAESADYNDGDYWGQGTQVTVSS | low polyreactivity |
| QVQLVESGGGLVQAGGSLRLTCAASGGTFQPNAMGGYRQAPGKERELVAAISWSDGSTYYADSVKGRFTISRDNAKNTVYLQMKSLKPVDTAVYYCAADFTYYDSPYRDYNYESWGQGTQVTVSS | low polyreactivity |
| QVQLVESGGGLVQAGGSLRLTCAASGGTIFPNAMGWYRQAPGKEMELVATITSSDTTNYADSVKGRFTISRDNAMNTVYLQMNSLKTEDTAVYYCDASFKLRYWDYYYWGQGTQVTVSS | low polyreactivity |
| QVQLVESGGGLVQAGGSLRLTCAASGGTLDYNAMGWYRQAPGKERELVAPISAGADGTYYADSVKGRFTISRDNAKNTVYLQMNSLKPEDSAVYYCAARPKNNWARTNFGIRYNDWGQGTQVTVSS | high polyreactivity |
| QVQLVESGGGLVQAGGSLRLTCAASGIIFDKNAMGWYRQAPGKERELVAVITRGGSTYYADSVKGRFTISRDNAKNTVYLQMNSLKPEDTAVYYCAARYTPGFGYWGQGTQVTVSS | high polyreactivity |
| QVQLVESGGGLVQAGGSLRLTCAASGIIFSGYAMGWYRQAPGTERELVASIRSGSNTYYADSVKGRITISRDNAKYTVYFQMNSLKPEDTGVYYCAADIEYSYFQVFSYNYEYWGQGSQVTVSS | low polyreactivity |
| QVQLVESGGGLVQAGGSLRLTCAASGIILVAYPMGWYRQAPGKERELVAAITTSGTSTYYADSVKGRFTISRDNAKNTGYVQMNSLKPEDTAVYYCAVRQRYGPARYDYWGQGTQVTVSS | high polyreactivity |
| QVQLVESGGGLVQAGGSLRLTCAASGIIYYVYAMVWYRQAPGKERELVAAITSGGTTYYADSVKGRFTISRDNAKNTVYLQMNSLKPEDTAVYYCAAARGGGRTYGYWGQGTQVTVSS | high polyreactivity |
| QVQLVESGGGLVQAGGSLRLTCAASGITFCIYVMGWYRQAPGKEREVVATISRSDDNTYYADSVKGRFTISRDNAKNTVYLQMYCLKPEDTAVYYCAADGVISAWYSSRDDYWGQGTQVTVSS | low polyreactivity |
| QVQLVESGGGLVQAGGSLRLTCAASGITFDLNAKGWYRQAPGKERELVAAIFRGGSTYYADSVKGRFTISRDNAKNTVYLQMNSLKPEDTAVYYCAAAYYRVGRAYPHEAYDYWGQGTQVTVSS | low polyreactivity |
| QVQLVESGGGLVQAGGSLRLTCAASGITFKYKAMGWYRQAPGKEWELVAAISKGGGSTYYADSVKGRFTISRDNAKNTVYLQMNSLKPEVTAVYYCNAVPRRPVVSDTNPVGYDYWGEGTQVTVSS | low polyreactivity |
| QVQLVESGGGLVQAGGSLRLTCAASGLIFVDNAMGWYRQAPGKERELVAAIDSGGSTNYADSVKGRFTISRDNAKNTVYLPMNSLKPEDTAVYYCAAEYVRFYWYTSDYWGQGTQVTVSS | low polyreactivity |

From the nanobody polyreactivity screen of Harvey et al. (2022)
